Tests used:
Experiment in all cases: pull-down binding Z-score (relative to library population); higher = stronger binding
[1] = system: G-clamp-N3 (biotin conjugate); details: RNA library: Library-1 (pre-miRNA loops + repeats)
Outline: (§1)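 Streptavidin beads bearing 100 pmol of a biotin-conjugated small molecule were incubated for 60 min at 25 °C with 1 μg of heat-folded, Cy5- or Cy3-end-labelled RNA library in phosphate/NaCl/KCl buffer. Hot SDS eluted the RNA that stayed bound after three washes, and this RNA was hybridised for 20 h at 55.5 °C to a DNA barcode microarray. Binding was expressed as a Z-score against the library mean and standard deviation, after subtraction of a beads-only signal and trimmed averaging of barcoded replicate probes.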

[2] = system: TO-3-N3 (biotin conjugate); details: RNA library: Library-2
Outline: as §1

[3] = system: TO-3-N3-2 (biotin conjugate); details: RNA library: Library-2
Outline: as §1

[4] = system: TO-N3 (biotin conjugate); details: RNA library: Library-2
Outline: as §1

[5] = system: TO-N3-2 (biotin conjugate); details: RNA library: Library-2
Outline: as §1

| Sequence | pull-down binding Z-score [1] | pull-down binding Z-score [2] | pull-down binding Z-score [3] | pull-down binding Z-score [4] | pull-down binding Z-score [5] |
| --- | --- | --- | --- | --- | --- |
| CUAAAUGGUACCCACUUUAUUUAG [hsa-mir-5687] | -0.726 | -0.627 | -0.0559 | -0.76 | -0.639 |
| CUAACAGGCCCCUGUCACCAUUAG [hsa-mir-5579] | -0.762 | -0.463 | -0.144 | -0.073 | 0.236 |
| CUAAGCUAUGGACUGCUAUGGACUGCUAG [hsa-mir-4473] | -0.249 | -0.193 | 0.196 | 0.172 | 0.578 |
| CUAAUCUCUUAGCACUGAAGAUUAG [hsa-mir-4671] | -0.0111 | 0.0266 | -0.253 | -0.125 | -0.473 |
| CUACAUCGUGGAAGCCAGCACCAUGCAG [hsa-mir-455] | 0.169 | 0.731 | -0.206 | 0.826 | 0.773 |
| CUACUAGUUUGUAGUAGUUCGUAGCAG [hsa-mir-3919] | 0.56 | -0.438 | 0.295 | -0.197 | 0.637 |
| CUACUCAAGGCUAG [hsa-mir-4266] | -0.163 | 1.32 | 0.132 | 1.35 | -0.0352 |
| CUAGUAUGUCUCAUCCCCUACUAG [hsa-mir-151a] | 0.0263 | -0.144 | -0.201 | -0.343 | 0.072 |
| CUAUCCUUCCCUUGGAAAAUGAUCUGAG [hsa-mir-4770] | -0.925 | -0.188 | -0.189 | -0.245 | -5.12e-05 |
| CUAUGGCCCCCCUCCUCUCUGAAAGCAAGGCCACUUG [hsa-mir-8081] | -1.13 | 0.3 | 0.282 | 0.738 | 0.982 |
| CUAUUCAGAAAUGUGGCCUGUGAUUAG [hsa-mir-1295a] | 0.22 | -0.00311 | 0.231 | -0.0755 | 0.169 |
| CUCAACUCUUGGUCCUCUGAG [hsa-mir-3165] | -0.955 | -0.385 | 0.0789 | -0.316 | 0.545 |
| CUCAAGUCCUCUAUUUCUUUGAA [hsa-mir-7978] | -1.16 | -0.712 | -0.54 | -0.484 | 0.0517 |
| CUCAAUGUAGUCUUGUAAGGAACAGGUUGAAG [hsa-mir-595] | 0.711 | -0.166 | 0.34 | 0.268 | 0.908 |
| CUCACAUGGAGUAAAAUAUGAU [hsa-mir-3134] | -1.71 | 0.744 | 0.194 | 0.711 | 0.206 |
| CUCACCAUAGUGGUGGA [hsa-mir-1288] | -1.2 | -0.33 | -0.646 | -0.412 | -0.588 |
| CUCACGUGUGCCUGCCUGUGAG [hsa-mir-339] | -0.747 | -1.01 | -0.521 | -0.555 | 1.55 |
| CUCACUGCAGAAUUAUUUUGAG [hsa-mir-4524a] | 0.934 | -0.62 | -0.267 | -0.869 | -0.99 |
| CUCAGAGGGCUGAAGUGGUUGUGGGGAGGGGCUUCUGGG [hsa-mir-4296] | 1.39 | 4.7 | 4.91 | 4.83 | 4.01 |

| Sequence | pull-down binding Z-score [1] | pull-down binding Z-score [2] | pull-down binding Z-score [3] | pull-down binding Z-score [4] | pull-down binding Z-score [5] |
| --- | --- | --- | --- | --- | --- |
| CUCAGCAUGUUGAGCCCUGUCUCUGGGGAGCUGAC [hsa-mir-6505] | 1.48 | 0.254 | -0.142 | 0.597 | 0.878 |
| CUCAGCCUGGAAAAAGCUGAG [hsa-mir-4765] | 0.49 | -0.454 | -0.575 | -0.672 | -0.646 |
| CUCAGGAAUUGGAUAAGCUUUUCUGAG [hsa-mir-5194] | 0.541 | -0.212 | -0.272 | -0.399 | -0.323 |
| CUCAGGACAGCGGGUGUCAGCUUGCCUGAC [hsa-mir-6859-1_6859-3_6859-2_6859-4] | -0.377 | 0.665 | 0.241 | 1.12 | 1.4 |
| CUCAUGAUAUGUUUGCCCCAUCAGCGUGUCACGAG [hsa-mir-3616] | 0.251 | -0.104 | -0.139 | -0.0894 | 0.199 |
| CUCAUGUAAACUAAAACAUGAU [hsa-mir-508] | -1.91 | 0.0647 | -0.244 | -0.229 | -0.891 |
| CUCAUUGUUGAAUGGAAUGAGAU [hsa-mir-3145] | 2.58 | -0.527 | -0.319 | -0.571 | 0.348 |
| CUCCGGGUUGGGG [hsa-mir-1469] | 0.177 | -0.552 | -0.476 | -0.718 | -0.557 |
| CUCCUAUUGAAAAUGAACAGGAG [hsa-mir-873] | -0.315 | -0.0676 | -0.299 | -0.285 | -0.875 |
| CUCCUCCGCUGCCGCCGGGAGAG [hsa-mir-4785] | 0.0193 | -0.584 | -0.327 | -0.794 | 0.0312 |
| CUCGCUGGGAGGUGUGCUAUCGUCUUCCCCGGGAG [hsa-mir-3689d-1] | 0.293 | -0.0907 | -0.13 | 0.154 | 0.734 |
| CUCGCUGGGAGGUGUGCUAUCGUCUUCCCUGGGAG [hsa-mir-3689d-2] | -0.351 | 0.157 | -0.246 | 0.338 | 0.541 |
| CUCGGCCAUCCUCCGUCUGCCCAG [hsa-mir-935] | -1.08 | -0.0566 | 0.13 | 0.473 | 1.16 |
| CUCGGGAGGCUGAG [hsa-mir-4419a] | 1.91 | -0.569 | -0.459 | -0.51 | 0.147 |
| CUCGGGUGGAUAAGUCUGAUCUGAG [hsa-mir-3663] | 1.2 | -0.724 | -0.631 | -0.554 | 0.26 |
| CUCGUCUCUACAAAAAAUUGAGACAGG [hsa-mir-4512] | -0.338 | 0.00896 | -0.15 | -0.152 | -0.632 |
| CUCUAGACUCUAUUAUAGUUUCCUGAG [hsa-mir-558] | -1.03 | -0.335 | -0.582 | -0.751 | -0.545 |
| CUCUCCUCCAGCUCAGCUGGUCAGGAGAG [hsa-mir-3160-1] | -0.259 | 1.09 | -0.0211 | 0.959 | -0.0869 |
